Reference: IntAct's records for PubMed 31515488

B1: Ligand of Numb protein X 2 (Homo sapiens), Q8N448 (parent)
chain: MGTTSDEMVSVEQTSSSSLNPLCFECGQQHWTRENHLYNYQNEVDDDLVCHICLQPLLQPLDTPCGHTFCYKCLRNFLQEKDFCPLDRKRLHFKLCKKSSILVHKLLDKLLVLCPFSSVCKDVMQRCDLEAHLKNRCPGASHRRVALERRKTSRTQAEIENENGPTLLDPAGTLSPEADCLGTGAVPVERHLTSASLSTWSEEPGLDNPAFEESAGADTTQQPLSLPEGEITTIEIHRSNPYIQLGISIVGGNETPLINIVIQEVYRDGVIARDGRLLAGDQILQVNNYNISNVSHNYARAVLSQPCNTLHLTVLRERRFGNRAHNHSDSNSPREEIFQVALHKRDSGEQLGIKLVRRTDEPGVFILDLLEGGLAAQDGRLSSNDRVLAINGHDLKYGTPELAAQIIQASGERVNLTIARPGKPQPGNTIREAGNHSSSSQHHTPPPYYSRPSSHKDLTQCVTCQEKHITVKKEPHESLGMTVAGGRGSKSGELPIFVTSVPPHGCLARDGRIKRGDVLLNINGIDLTNLSHSEAVAMLKASAASPAVALKALEVQIVEEATQNAEEQPSTFSENEYDASWSPSWVMWLGLPSTLHSCHDIVLRRSYLGSWGFSIVGGYEENHTNQPFFIKTIVLGTPAYYDGRLKCGDMIVAVNGLSTVGMSHSALVPMLKEQRNKVTLTVICWPGSLV
partner: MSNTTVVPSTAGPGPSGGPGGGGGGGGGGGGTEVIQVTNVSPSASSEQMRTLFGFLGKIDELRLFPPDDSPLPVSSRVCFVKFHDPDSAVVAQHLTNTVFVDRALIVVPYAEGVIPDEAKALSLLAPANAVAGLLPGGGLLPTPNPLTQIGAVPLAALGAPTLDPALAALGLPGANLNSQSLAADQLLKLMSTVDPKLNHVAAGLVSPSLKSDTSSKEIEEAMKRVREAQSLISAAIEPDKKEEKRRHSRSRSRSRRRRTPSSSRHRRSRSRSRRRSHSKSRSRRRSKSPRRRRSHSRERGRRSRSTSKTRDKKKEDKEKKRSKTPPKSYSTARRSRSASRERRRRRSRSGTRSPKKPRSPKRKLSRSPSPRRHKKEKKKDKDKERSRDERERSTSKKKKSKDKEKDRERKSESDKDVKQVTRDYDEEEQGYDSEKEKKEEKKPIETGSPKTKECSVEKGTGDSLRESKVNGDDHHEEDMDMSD
B2: Proto-oncogene serine/threonine-protein kinase mos (Homo sapiens), P00540 (parent)
chain: MPSPLALRPYLRSEFSPSVDARPCSSPSELPAKLLLGATLPRAPRLPRRLAWCSIDWEQVCLLQRLGAGGFGSVYKATYRGVPVAIKQVNKCTKNRLASRRSFWAELNVARLRHDNIVRVVAASTRTPAGSNSLGTIIMEFGGNVTLHQVIYGAAGHPEGDAGEPHCRTGGQLSLGKCLKYSLDVVNGLLFLHSQSIVHLDLKPANILISEQDVCKISDFGCSEKLEDLLCFQTPSYPLGGTYTHRAPELLKGEGVTPKADIYSFAITLWQMTTKQAPYSGERQHILYAVVAYDLRPSLSAAVFEDSLPGQRLGDVIQRCWRPSAAQRPSARLLLVDLTSLKAELG
partner: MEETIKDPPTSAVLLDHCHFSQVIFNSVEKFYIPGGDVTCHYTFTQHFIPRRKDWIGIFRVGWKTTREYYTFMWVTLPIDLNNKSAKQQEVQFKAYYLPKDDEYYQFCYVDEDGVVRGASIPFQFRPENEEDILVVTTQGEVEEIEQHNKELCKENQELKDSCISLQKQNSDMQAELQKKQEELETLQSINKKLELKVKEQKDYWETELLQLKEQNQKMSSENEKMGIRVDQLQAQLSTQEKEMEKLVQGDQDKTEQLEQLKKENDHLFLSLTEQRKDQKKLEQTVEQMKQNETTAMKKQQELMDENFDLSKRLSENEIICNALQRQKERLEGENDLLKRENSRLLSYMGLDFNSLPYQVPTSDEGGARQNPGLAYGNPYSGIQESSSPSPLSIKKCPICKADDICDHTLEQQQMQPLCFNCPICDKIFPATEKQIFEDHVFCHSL
B3: Serine/threonine-protein kinase PAK 5 (Homo sapiens), Q9P286 (parent)
chain: MFGKKKKKIEISGPSNFEHRVHTGFDPQEQKFTGLPQQWHSLLADTANRPKPMVDPSCITPIQLAPMKTIVRGNKPCKETSINGLLEDFDNISVTRSNSLRKESPPTPDQGASSHGPGHAEENGFITFSQYSSESDTTADYTTEKYREKSLYGDDLDPYYRGSHAAKQNGHVMKMKHGEAYYSEVKPLKSDFARFSADYHSHLDSLSKPSEYSDLKWEYQRASSSSPLDYSFQFTPSRTAGTSGCSKESLAYSESEWGPSLDDYDRRPKSSYLNQTSPQPTMRQRSRSGSGLQEPMMPFGASAFKTHPQGHSYNSYTYPRLSEPTMCIPKVDYDRAQMVLSPPLSGSDTYPRGPAKLPQSQSKSGYSSSSHQYPSGYHKATLYHHPSLQSSSQYISTASYLSSLSLSSSTYPPPSWGSSSDQQPSRVSHEQFRAALQLVVSPGDPREYLANFIKIGEGSTGIVCIATEKHTGKQVAVKKMDLRKQQRRELLFNEVVIMRDYHHDNVVDMYSSYLVGDELWVVMEFLEGGALTDIVTHTRMNEEQIATVCLSVLRALSYLHNQGVIHRDIKSDSILLTSDGRIKLSDFGFCAQVSKEVPKRKSLVGTPYWMAPEVISRLPYGTEVDIWSLGIMVIEMIDGEPPYFNEPPLQAMRRIRDSLPPRVKDLHKVSSVLRGFLDLMLVREPSQRATAQELLGHPFLKLAGPPSCIVPLMRQYRHH
partner: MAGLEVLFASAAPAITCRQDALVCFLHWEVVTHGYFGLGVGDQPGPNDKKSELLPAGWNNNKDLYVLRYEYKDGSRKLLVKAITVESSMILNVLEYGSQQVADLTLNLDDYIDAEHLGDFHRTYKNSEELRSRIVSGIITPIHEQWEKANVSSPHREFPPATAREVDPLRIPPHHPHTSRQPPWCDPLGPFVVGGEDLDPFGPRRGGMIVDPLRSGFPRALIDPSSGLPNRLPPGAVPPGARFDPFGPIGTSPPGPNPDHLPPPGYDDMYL
B4: Actin filament-associated protein 1-like 1 (Homo sapiens), Q8TED9 (parent)
chain: MDRGQVLEQLLPELTGLLSLLDHEYLSDTTLEKKMAVASILQSLQPLPAKEVSYLYVNTADLHSGPSFVESLFEEFDCDLSDLRDMPEDDGEPSKGASPELAKSPRLRNAADLPPPLPNKPPPEDYYEEALPLGPGKSPEYISSHNGCSPSHSIVDGYYEDADSSYPATRVNGELKSSYNDSDAMSSSYESYDEEEEEGKSPQPRHQWPSEEASMHLVRECRICAFLLRKKRFGQWAKQLTVIREDQLLCYKSSKDRQPHLRLALDTCSIIYVPKDSRHKRHELRFTQGATEVLVLALQSREQAEEWLKVIREVSKPVGGAEGVEVPRSPVLLCKLDLDKRLSQEKQTSDSDSVGVGDNCSTLGRRETCDHGKGKKSSLAELKGSMSRAAGRKITRIIGFSKKKTLADDLQTSSTEEEVPCCGYLNVLVNQGWKERWCRLKCNTLYFHKDHMDLRTHVNAIALQGCEVAPGFGPRHPFAFRILRNRQEVAILEASCSEDMGRWLGLLLVEMGSRVTPEALHYDYVDVETLTSIVSAGRNSFLYARSCQNQWPEPRVYDDVPYEKMQDEEPERPTGAQVKRHASSCSEKSHRVDPQVKVKRHASSANQYKYGKNRAEEDARRYLVEKEKLEKEKETIRTELIALRQEKRELKEAIRSSPGAKLKALEEAVATLEAQCRAKEERRIDLELKLVAVKERLQQSLAGGPALGLSVSSKPKSGETANKPQNSVPEQPLPVNCVSELRKRSPSIVASNQGRVLQKAKEWEMKKT
partner: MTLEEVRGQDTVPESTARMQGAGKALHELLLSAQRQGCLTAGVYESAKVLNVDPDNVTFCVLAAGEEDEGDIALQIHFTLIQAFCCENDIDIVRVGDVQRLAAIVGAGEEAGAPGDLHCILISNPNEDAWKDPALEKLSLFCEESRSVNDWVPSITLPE
B5: Consortin (Homo sapiens), Q6PJW8 (parent)
chain: MDDSDTPTYYLQIEPQDGCHPGDSVERSVTCLPSASDENENQLDGDGHEHLTSSDSAMGKPQVSEQDSLNNNESCTLSCEVAAGENLQNTLCEASRDEQAFLGKDKKIPGKRSPRSKKGTAKKIPPGLFSGDIAPLMQEKVLSAVTYAVDDEEAAEVNANEQPEAPKLVLQSLFSLIRGEVEQLDSRALPLCLHQIAESYFQEEDYEKAMKFIQLERLYHEQLLANLSAIQEQWETKWKTVQPHTVTALRNSEKGFNGEDFERLTKICATHQDPLLSKHKIAAVEKSQERKCSTQLLVSEDPKEGGATTKESESKTCLGTESSKESQHTVEPLGSSPCCHQMDVQTDSPSLSVTAGKDHMEELLCSAEATLALHTQSSETAGSPSGPDSSEDACEDDSRLQLAQTEACQDVARIEGIAEDPKVFLSSKSKTEPLISPGCDRIPPALISEGKYSQAQRKELRLPLRDASEALPTDQLENNELNELQQPDLTDSDGKSPQAQADSDGSENVLCGNNQISDLGILLPEVCMAPEEKGDKDDQLNKETEDYLNSLLEGCLKDTEDSLSYEDNQDDDSDLLQDLSPEEASYSLQENLPSDESCLSLDDLAKRIEIAEVVPTEGLVSILKKRNDTVGDHPAQMQHKPSKRRVRFQEIDDSLDQDEVGGGSCILLVLLCIATVFLSVGGTALYCTFGDMESPVCTDFADNMDFYYTKLLQGVAELKHWIYLS
B6: Kelch-like protein 2 (Homo sapiens), O95198 (parent)
chain: METPPLPPACTKQGHQKPLDSKDDNTEKHCPVTVNPWHMKKAFKVMNELRSQNLLCDVTIVAEDMEISAHRVVLAACSPYFHAMFTGEMSESRAKRVRIKEVDGWTLRMLIDYVYTAEIQVTEENVQVLLPAAGLLQLQDVKKTCCEFLESQLHPVNCLGIRAFADMHACTDLLNKANTYAEQHFADVVLSEEFLNLGIEQVCSLISSDKLTISSEEKVFEAVIAWVNHDKDVRQEFMARLMEHVRLPLLPREYLVQRVEEEALVKNSSACKDYLIEAMKYHLLPTEQRILMKSVRTRLRTPMNLPKLMVVVGGQAPKAIRSVECYDFKEERWHQVAELPSRRCRAGMVYMAGLVFAVGGFNGSLRVRTVDSYDPVKDQWTSVANMRDRRSTLGAAVLNGLLYAVGGFDGSTGLSSVEAYNIKSNEWFHVAPMNTRRSSVGVGVVGGLLYAVGGYDGASRQCLSTVECYNATTNEWTYIAEMSTRRSGAGVGVLNNLLYAVGGHDGPLVRKSVEVYDPTTNAWRQVADMNMCRRNAGVCAVNGLLYVVGGDDGSCNLASVEYYNPTTDKWTVVSSCMSTGRSYAGVTVIDKPL
partner: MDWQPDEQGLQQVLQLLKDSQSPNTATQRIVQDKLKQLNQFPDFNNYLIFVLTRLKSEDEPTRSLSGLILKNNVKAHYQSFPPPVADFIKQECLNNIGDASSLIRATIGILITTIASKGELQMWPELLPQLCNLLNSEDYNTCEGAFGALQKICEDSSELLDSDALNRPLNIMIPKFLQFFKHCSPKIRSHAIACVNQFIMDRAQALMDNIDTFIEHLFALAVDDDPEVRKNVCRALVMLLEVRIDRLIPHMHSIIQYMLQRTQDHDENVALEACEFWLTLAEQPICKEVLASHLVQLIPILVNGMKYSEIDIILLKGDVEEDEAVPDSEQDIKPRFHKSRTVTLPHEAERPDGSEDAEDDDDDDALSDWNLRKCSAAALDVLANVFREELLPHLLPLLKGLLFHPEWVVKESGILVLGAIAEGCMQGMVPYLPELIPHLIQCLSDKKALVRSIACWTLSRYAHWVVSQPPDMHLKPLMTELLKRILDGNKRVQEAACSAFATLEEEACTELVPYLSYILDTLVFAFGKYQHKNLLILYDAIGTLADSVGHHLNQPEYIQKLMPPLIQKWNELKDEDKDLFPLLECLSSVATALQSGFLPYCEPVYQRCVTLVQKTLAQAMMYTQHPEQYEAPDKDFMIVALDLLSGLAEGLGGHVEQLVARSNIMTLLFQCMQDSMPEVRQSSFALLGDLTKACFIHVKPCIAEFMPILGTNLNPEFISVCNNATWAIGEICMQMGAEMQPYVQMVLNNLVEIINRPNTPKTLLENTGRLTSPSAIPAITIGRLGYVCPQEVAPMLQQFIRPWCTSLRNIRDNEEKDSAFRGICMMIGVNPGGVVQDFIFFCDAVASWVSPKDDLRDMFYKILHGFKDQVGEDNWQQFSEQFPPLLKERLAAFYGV

Variants of: B1
Conditions: with srs11_human SRSF11, Q05519

Row | Variant | effect of a mutation on the interaction
1 | S198P | with no effect
2 | Y266C | disrupting interaction strength

Variants of: B2
Conditions: with caco2_human CALCOCO2, Q13137

Row | Variant | effect of a mutation on the interaction
3 | A105S | with no effect
4 | A123T | disrupting interaction strength

Variants of: B3
Conditions: with psmf1_human PSMF1, Q92530

Row | Variant | effect of a mutation on the interaction
5 | R335P | with no effect

Variants of: B4
Conditions: with ga45g_human GADD45G

Row | Variant | effect of a mutation on the interaction
6 | S98N | with no effect
7 | L406P | with no effect

Variants of: B5
Conditions: with rop1a_human ROPN1, Q9HAT0
Sequence of rop1a_human ROPN1, Q9HAT0 (Q9HAT0 whole entry): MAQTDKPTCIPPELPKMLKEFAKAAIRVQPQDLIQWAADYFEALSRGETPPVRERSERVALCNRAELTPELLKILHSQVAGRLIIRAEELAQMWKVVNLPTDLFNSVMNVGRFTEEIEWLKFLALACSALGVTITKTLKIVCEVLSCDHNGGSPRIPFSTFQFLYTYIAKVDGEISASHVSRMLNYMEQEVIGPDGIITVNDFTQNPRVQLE

Row | Variant | effect of a mutation on the interaction
8 | Q183R | with no effect
9 | R399C | with no effect

Variants of: B6
Conditions: with tnpo2_human TNPO2, O14787

Row | Variant | effect of a mutation on the interaction
10 | S68A | with no effect
11 | A480T | with no effect
